Experimental data reported in US9404087B2, “Insulin producing cells derived from pluripotent stem cells” (Kadimastem Ltd., priority 2010, dated 2016).

B1: Noggin: Noggin (Preprotech) added at 100 ng/ml in step 5 (protein, UniProt Q13253 28-232, looked up)
Noggin: QHYLHIRPAPSDNLPLVDLIEHPDPIFDPKEKDLNETLLRSLLGGHYDPGFMATSPPEDRPGGGGGAAGGAEDLAELDQLLRQRPSGAMPSEIKGLEFSEGLAQGKKQRLSKKLRRKLQMWLWSQTFCPVLYAWNDLGSRFWPRYVKVGSCFSKRSCSVPEGMVCKPSKSVHLTVLRWRCQRRGGQRCGWIPIQYPIISECKCSC
B2: Activin A: recombinant human Activin A (Preprotech), 100 ng/ml (protein, UniProt P08476 311-426, looked up)
Inhibin beta A chain: GLECDGKVNICCKKQFFVSFKDIGWNDWIIAPSGYHANYCEGECPSHIAGTSGSSLSFHSTVINHYRMRGHSPFANLKSCCVPTKLRPMSMLYYDDGQNIIKKDIQNMIVEECGCS
modifications: Inhibin beta A chain

Tests used:
Assay type in all cases: cell-based
[1] = test system: human insulin C-peptide; assay: Content of human insulin C-peptide by ELISA in cell fractions
Protocol: On day 20, the medium used in step III of Example 2 was modified to adjust the glucose concentration to 5.5 mM (referred to herein as DM7). For isolation of EpCAM^+ cells by magnetic cell sorting (MACS technology, Miltenyi Biotec), a 10 cm-diameter plate was washed with PBS^−/− (no Ca^++, no Mg^++). Cells were then dissociated by treatment with Accutase (Stempro, 2.5 ml/10 cm plate), for 10 minutes at 37° C., and pipetting up and down. The cells were collected in DM7 and an aliquot counted in a NucleoCounter (New Brunswick). Cells were centrifuged at 1,500 rpm (350×g) for 5 minutes and re-suspended in MACS buffer (PBS^−/− with 0.5% BSA, 2 mM EDTA), using 0.3 ml for 50 million cells. Magnetic beads conjugated to anti-EpCAM antibodies (Miltenyi Biotec—CD326 pluripotent stem cells microbeads) were added (0.1 ml beads for 50 million cells). After 30 minutes at 4° C., the cells were washed once in 50 ml of MACS buffer, centrifuged, and finally re-suspended in 0.5 ml MACS buffer (for a maximum of 10^8 cells). […]
Aliquots of the Presort culture and of EpCAM-MACS-separated fractions (from step 7), as well as of re-aggregated clusters (step 8) were analyzed. The number of cells was counted, using the Nucleocounter. After centrifugation at 350×g for 5 minutes, cell pellets were dissolved in M-PER (Mammalian protein extraction reagent, Pierce), typically using 0.1 ml M-PER for 2 million cells, and content of human insulin C-peptide was measured with an ELISA kit (Mercodia, Upsalh, Sweden, ultrasensitive c-peptide kit (minimal detection 5 pM) or Mercodia c-peptide ELISA (minimal detection 90 pM). Samples in M-PER were diluted 3 fold, or more in the kit buffer, and 20 μl of the ⅓ dilution were assayed. Results were expressed per mg total protein (as measured by Bradford assay) and per million cells (counted in a NucleoCounter). […] Human insulin mRNA was quantitated by RT-qPCR (Taq-Man, Applied Biosystems, Step One) using the TATA binding protein (TBP) gene as reference. […]

[2] = test system: Human insulin mRNA; assay: Human insulin mRNA by RT-qPCR with TBP as reference
Protocol: Aliquots of the Presort culture and of EpCAM-MACS-separated fractions (from step 7), as well as of re-aggregated clusters (step 8) were analyzed. The number of cells was counted, using the Nucleocounter. After centrifugation at 350×g for 5 minutes, cell pellets were dissolved in M-PER (Mammalian protein extraction reagent, Pierce), typically using 0.1 ml M-PER for 2 million cells, and content of human insulin C-peptide was measured with an ELISA kit (Mercodia, Upsalh, Sweden, ultrasensitive c-peptide kit (minimal detection 5 pM) or Mercodia c-peptide ELISA (minimal detection 90 pM). Samples in M-PER were diluted 3 fold, or more in the kit buffer, and 20 μl of the ⅓ dilution were assayed. Results were expressed per mg total protein (as measured by Bradford assay) and per million cells (counted in a NucleoCounter). Other cell pellets were suspended in 0.7 ml buffer RLT (RNAeasy, Qiagen) per million cells, for RNA extraction. Human insulin mRNA was quantitated by RT-qPCR (Taq-Man, Applied Biosystems, Step One) using the TATA binding protein (TBP) gene as reference. In the same way, proteins and RNA were extracted from entire plates after scraping the cells with a rubber policeman.
Differentiation of hES cells towards a pancreatic lineage: The hES cell cultures were differentiated as detailed in Example 5 and FIG. 15, steps 1-8, and RNA extracted at different steps was subjected to RT-qPCR.
Human ES cells were differentiated according to the scheme illustrated in FIG. 22. Two modifications were made in the procedure detailed in Example 5. Thus, in step 2 and 3, the fetal calf serum was replaced by serum replacement (KOSR, Invitrogen), at the same concentrations (i.e. 2% in step 2, 0.2% in step 3). In addition, in step 5, Noggin (Preprotech) was added at 100 ng/ml. The EpCAM-MACS fractionation was performed as in Example 5.

[3] = test system: human ES cells; assay: Indirect immunofluorescence of definitive endoderm markers after Activin A treatment
Protocol: On day one, three wells of human ES cell colonies (grown on Corning 6×well plate for 4 days) detached by collagenase were collected into a 15 ml tube, and colonies washed twice by low speed centrifugation in differentiation medium A (DMEM/F12, 2% KOSR, 2 mM glutmine, 1×NEAA, 100 μM βMEtOH, 1 mM NaPyruvate and penicillin and streptomycin (PS)).
After all the hES clusters had been collected and washed, the clusters were suspended in 1.5 ml/well of differentiation medium A1, (i.e. differentiation medium A including 100 ng/ml recombinant human Activin A (Preprotech) and 25 ng/ml recombinant Wnt 3 (R&D), 2% knock-out serum replacement and 2 mg/ml bovine serum albumin (BSA, cell culture tested SIGMA)). 450-500 colonies/well were seeded in Costar 6×well plates which had been coated with 0.1% porcine gelatin (Sigma) 1 day before. Alternatively, about 3000 colonies were seeded on 10 cm diameter plates. Plates were left in the incubator (37° C., 5% CO2) for 2 days without medium change.
On day 3, the medium was changed to differentiation medium A2 (DMEM/F12, 2% KOSR, 2 mM glut, 1×NEAA, 100 μM βMEtOH, 1 mM NaPyr and 2% Fetal Calf Serum (FCS)) containing 100 ng/ml Activin A and 2 mg/ml BSA. At this stage, clusters still floated and many single cells were visible. The plates were tilted so that clusters fell to the bottom edge of the well and the old medium was removed leaving clusters in 300 μl medium that is completed with 1.2 ml of medium A2. The collected culture medium that contained a few clusters was centrifuged at 900 rpm for 5 minutes. The pellet was re-suspended in 1.5 ml medium A2 and added to one of the wells. On day 4, most clusters adhered to the plate and the culture medium was changed similarly as on day 3, to differentiation medium A3 (DMEM/F12, 2 mM glutamine, 1×NEAA, 100 μM βMEtOH, 1 mM NaPyr but with 0.2% FCS) that contained 100 ng/ml Activin A and 2 mg/ml BSA. Cells were left in the medium A3 for 2 days.
Cells were fixed (4% paraformaldehyde in Ca^2+ and Mg^2+ free PBS for 20 minutes), washed ×3 with PBS and blocked with 10% horse serum in PBS. The reaction with the primary antibody (Ab) was performed in 10% horse serum with or without 1% BSA. Secondary antibodies (Either donkey anti mouse; donkey anti rabbit; donkey or rabbit anti-goat that are conjugated with fluorescent tags, Alexa 488 or Alexa 566 (Molecular Probes/Invitrogen) or with Cy3/donkey anti rabbit DyLight 488 (Jackson laboratories). Pictures were taken with a CCD camera and processed with an imaging program. Mouse monoclonal anti Sox17 Ab (R&D) 10 μg/ml was used with 0.1% Triton X100. Rabbit polyclonal anti FoxA2 (ab40874) (Abcam) was used at the dilution of 1/1000 with 0.1% Triton X100.

[4] = five days Activin A conditioning, positive nuclei relative to DAPI nuclei (FIG. 1)

| Molecule | Insulin C-peptide ([1]; Table 4 Expt 1, D 19 (EpCAM+)) [ng/mg protein] | Insulin C-peptide ([1]; Table 4 Expt 1, D 19 (Presort)) [ng/mg protein] | Insulin C-peptide ([1]; Table 4 Expt 1, D 23 (EpCAM+)) [ng/mg protein] | Ratio Insulin mRNA over TBP mRNA ([2]; Table 5 Expt 1, D 19 (EpCAM+)) | Ratio Insulin mRNA over TBP mRNA ([2]; Table 5 Expt 1, D 19 (Presort)) | Ratio Insulin mRNA over TBP mRNA ([2]; Table 5 Expt 1, D 23 (EpCAM+)) | cells anti Oct4 positive ([3]; end of 5 days of Activin A treatment) [%] | cells expressing Sox17 and/or FoxA2 ([3]; end of 5 days of Activin A treatment, 100 ng/ml) | yield of cells expressing FoxA2 [3, 4] [%] | yield of cells expressing Sox17 [3, 4] [%] |
| --- | --- | --- | --- | --- | --- | --- | --- | --- | --- | --- |
| B1 | 8.15 | 2.9 | 17.5 | 0.7 | 0.6 | 0.7 | – | – | – | – |
| B2 | – | – | – | – | – | – | 5 | about 75% | 89 | 98 |
